{"source": "paper PMC7265457", "about": "“A disulfide constrains the ToxR periplasmic domain structure, altering its interactions with ToxS and bile-salts” (Scientific Reports, 2020)", "binders": {"B1": {"name": "V. cholerae non-disulfide bonded ToxR periplasmic domain (domain or fragment)", "chain": "TNPSQTSFKPLTVVDGVAVNMPNNHPDLSNWLPSIELCVKKYNEKHTGGLKPIEVIATGGQNNQLTLNYIHSPEVSGENITLRIVANPNDAIKVCE", "notes": "also called Vc-ToxRp"}}, "target": "T1, V. cholerae ToxS periplasmic domain tagged with an N-terminal chitin binding domain (V. cholerae, UniProt P24003 26-173)", "T1 construct": "also called CBD-ToxSp", "T1 sequence": "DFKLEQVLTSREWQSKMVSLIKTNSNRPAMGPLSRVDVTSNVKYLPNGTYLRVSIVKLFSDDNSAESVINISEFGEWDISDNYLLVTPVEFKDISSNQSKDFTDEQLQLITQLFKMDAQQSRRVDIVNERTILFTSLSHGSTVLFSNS", "test": "pull-down", "conditions": "both partners purified", "data": [{"binder": "B1", "values": [{"measurement": "amount pulled down (buffer) relative to Vc-dbToxRp with CDC", "value": 0.22, "unit": "relative level"}]}]}
